Three molecules from PMC8349896 (Molecular cell, 2021) can be followed below.

The target in one data set is T1, gp16-N (bacteriophage T7, UniProt P03726 1-228).
T1 sequence: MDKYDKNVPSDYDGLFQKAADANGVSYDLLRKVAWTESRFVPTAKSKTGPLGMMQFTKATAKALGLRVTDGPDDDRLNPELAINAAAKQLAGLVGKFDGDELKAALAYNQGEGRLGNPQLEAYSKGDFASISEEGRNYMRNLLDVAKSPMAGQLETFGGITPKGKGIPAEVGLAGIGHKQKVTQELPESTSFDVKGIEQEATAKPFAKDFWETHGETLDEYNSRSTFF
The data set is described as follows: EMSA. (In general: Mobility shift assays separate free from complexed probe on a gel.)

A further data set has as its target T2, gp16-C (bacteriophage T7, UniProt P03726 275-1318).
T2 sequence: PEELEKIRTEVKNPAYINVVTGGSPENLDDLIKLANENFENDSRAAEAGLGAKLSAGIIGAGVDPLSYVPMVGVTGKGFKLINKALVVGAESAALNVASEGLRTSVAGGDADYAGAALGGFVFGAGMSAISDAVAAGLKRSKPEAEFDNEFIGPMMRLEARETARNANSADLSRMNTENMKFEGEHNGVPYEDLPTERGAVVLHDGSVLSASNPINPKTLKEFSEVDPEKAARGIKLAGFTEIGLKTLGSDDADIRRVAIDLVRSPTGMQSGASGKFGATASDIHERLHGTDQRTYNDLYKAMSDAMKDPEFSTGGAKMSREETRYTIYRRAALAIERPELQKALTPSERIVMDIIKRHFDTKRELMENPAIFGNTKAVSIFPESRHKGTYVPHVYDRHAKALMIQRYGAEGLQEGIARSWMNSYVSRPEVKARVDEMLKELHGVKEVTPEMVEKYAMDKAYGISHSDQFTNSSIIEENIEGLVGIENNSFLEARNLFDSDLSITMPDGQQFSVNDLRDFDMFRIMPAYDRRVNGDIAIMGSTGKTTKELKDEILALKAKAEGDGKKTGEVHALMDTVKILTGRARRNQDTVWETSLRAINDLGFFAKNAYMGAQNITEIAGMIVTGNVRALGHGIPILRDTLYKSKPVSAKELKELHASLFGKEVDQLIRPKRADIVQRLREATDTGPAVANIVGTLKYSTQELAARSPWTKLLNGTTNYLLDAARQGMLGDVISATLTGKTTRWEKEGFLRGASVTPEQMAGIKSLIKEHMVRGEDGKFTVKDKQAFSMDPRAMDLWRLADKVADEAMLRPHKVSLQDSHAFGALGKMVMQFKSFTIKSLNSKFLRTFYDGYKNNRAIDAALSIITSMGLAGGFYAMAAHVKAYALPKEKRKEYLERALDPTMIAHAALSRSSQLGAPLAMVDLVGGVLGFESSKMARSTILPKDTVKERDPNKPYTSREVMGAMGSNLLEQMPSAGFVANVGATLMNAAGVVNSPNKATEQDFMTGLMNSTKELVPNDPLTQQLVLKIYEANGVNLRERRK
Nature of the data set: EMSA.

The data set “SEC” deals with the molecule itself. The data set is described as follows: SEC.
Data set [1] concerns the target T3, bacteriophage T7 ejection protein gp15, full length (bacteriophage T7, UniProt P03725 1-747).
T3 sequence (looked up): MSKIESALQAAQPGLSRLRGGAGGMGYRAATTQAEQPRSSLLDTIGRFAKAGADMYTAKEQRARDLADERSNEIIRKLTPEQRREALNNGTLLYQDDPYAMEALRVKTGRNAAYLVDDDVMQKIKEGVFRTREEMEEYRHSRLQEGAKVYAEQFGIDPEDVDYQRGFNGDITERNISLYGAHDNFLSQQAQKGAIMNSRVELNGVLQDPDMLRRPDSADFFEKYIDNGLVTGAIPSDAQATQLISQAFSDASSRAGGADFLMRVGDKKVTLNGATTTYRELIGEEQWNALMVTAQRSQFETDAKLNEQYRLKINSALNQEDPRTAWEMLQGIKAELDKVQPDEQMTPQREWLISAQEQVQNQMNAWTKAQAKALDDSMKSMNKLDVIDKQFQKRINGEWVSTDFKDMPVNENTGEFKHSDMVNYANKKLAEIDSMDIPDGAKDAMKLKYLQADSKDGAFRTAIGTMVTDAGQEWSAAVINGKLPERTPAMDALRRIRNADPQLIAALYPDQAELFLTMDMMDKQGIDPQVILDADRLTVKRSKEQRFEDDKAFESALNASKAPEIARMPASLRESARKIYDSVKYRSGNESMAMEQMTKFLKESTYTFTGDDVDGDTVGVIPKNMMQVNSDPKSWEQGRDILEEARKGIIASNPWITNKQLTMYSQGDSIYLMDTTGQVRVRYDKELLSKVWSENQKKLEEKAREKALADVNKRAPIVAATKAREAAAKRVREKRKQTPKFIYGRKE
The data set is described as follows: native gel or EMSA.

B1: Cy3-dsDNA 24-mer (dsDNA)
DNA 1: GCACTGCAGTAACTTGTCAGTCAT
DNA 2: ATGACTGACAAGTTACTGCAGTGC
Consider B1, for which the binding result with gp16-N is listed as “no binding”; with gp16-C it was “binds”.

B2: bacteriophage T7 ejection protein gp14 (natural protein, UniProt P03724 1-196, looked up)
chain: MCWAAAIPIAISGAQAISGQNAQAKMIAAQTAAGRRQAMEIMRQTNIQNADLSLQARSKLEEASAELTSQNMQKVQAIGSIRAAIGESMLEGSSMDRIKRVTEGQFIREANMVTENYRRDYQAIFAQQLGGTQSAASQIDEIYKSEQKQKSKLQMVLDPLAIMGSSAASAYASGAFDSKSTTKAPIVAAKGTKTGR
Take B2: the binding result in “SEC” is on record as “binds”.

B3: gp16-N (bacteriophage T7 gp16 residues 1-228) (domain or fragment, UniProt P03726 1-228, looked up)
chain: MDKYDKNVPSDYDGLFQKAADANGVSYDLLRKVAWTESRFVPTAKSKTGPLGMMQFTKATAKALGLRVTDGPDDDRLNPELAINAAAKQLAGLVGKFDGDELKAALAYNQGEGRLGNPQLEAYSKGDFASISEEGRNYMRNLLDVAKSPMAGQLETFGGITPKGKGIPAEVGLAGIGHKQKVTQELPESTSFDVKGIEQEATAKPFAKDFWETHGETLDEYNSRSTFF
In the case of B3, the binding result in data set [1] is reported as “binds”.
